According to patent US8084213, “Selection” (Domantis Limited):

Key:
Vh(DOM1h-10-27)-scArc-HA = Vh(DOM1h-10-27)-scArc-HA (Phage P22 / human Vh); experiment: DNA co-captured on protein A and human TNF receptor, not BSA; conditions: tags: N-terminal Vh dAb fusion, C-terminal HA; chain copies: 2 scArc per operator (inferred)
Method: The functional activity of the V_H(DOM1h-10-27)-scArc fusion protein can be assessed by PCR amplification of the DNA co-captured during the V_H-dependent immunoprecipitation of the in vitro translation reaction product. As in the case of $V_\kappa$-scArc fusion constructs, 1 µl of 1.7 nM template in 0.2 mg/ml tRNA is added to 25 µl EcoPro T7 in vitro translation mix (Novagen), supplemented with 0.75 µl of 100 mM oxidized glutathione (Sigma), and incubated at 25° C. for four hours. During the translation reaction the streptavidin-coated PCR tubes, cut from Strep Thermofast 96-well plates (Abgene), are first incubated at room temperature for three hours with 50 µl of at least 40 nM biotinylated target protein in PBS. The coating buffer is thereafter removed and any remaining free biotin-binding sites are blocked with a 15 min pulse of 50 µg/ml biotinylated BSA in PBS. The precoated wells are thereafter three times washed with PBS and then filled with 100 µl of binding buffer C+ (100 mM KCl, 20 mM Tris, 5 mM MgCl_2, 0.05% Tween 20, 0.05 mM EDTA, 1% BSA). Upon completion of the translation reaction the products are diluted in Buffer C+ and applied to the pre-coated and blocked PCR tubes, allowed to bind for 30 min at room temperature and washed 4 times with 150 µl of Buffer C+. […]

[1] = target: scFv(31IJ1)-(KEAAA)6-scArc-HA (Phage P22 / human scFv?); experiment: co-capture on protein A, protein L, fluorescein; with anti-HA 3F10; conditions: tags: N-terminal scFv fusion, C-terminal HA; chain copies: 2 scArc per operator (inferred)
Method: In the solution expression experiments 3 µl of 1.7 nM PCR-amplified pIE7aA, pIE7a2A, pIE7a3A, pIE7a4A, pIE7aA-scFv(31IJ1), pIE7a2A-scFv(31 Ul), pIE7a3A-scFv (31IJ1) or pIE7a4A-scFv(31IJ1) template in 0.2 mg/ml tRNA is added to 25 µl EcoPro T7 in vitro translation mix (Novagen), supplemented with 0.75 µl of 100 mM oxidized glutathione (Sigma) and 0.25 µl […] 3F10 αHA mAb (Roche). Each reactions is split into three 9 µl aliquots. Two of the three in vitro translation aliquots of pIE7aA-scFv(31IJ1), pIE7a2A-scFv(31IJ1), pIE7a3A-scFv(31IJ1) or pIE-7a4A-scFv(31IJ1) are immediately combined with the aliquots of pIE7aA, pIE7a2A, pIE7a3A or pIE7a4A expression reactions respectively, one before and the other after the four-hour incubation at 25° C.
During the translation reaction the streptavidin-coated PCR tubes, cut from Strep Thermofast 96-well plates (Abgene), are first incubated at room temperature for three hours with 50 µl of at least 40 nM biotinylated protein A (Sigma), protein L (Pierce) fluorescein (Molecular Probes) of BSA (Sigma) in PBS. The coating buffer is thereafter removed and any remaining free biotin-binding sites are blocked with a 15 min pulse of 50 µg/ml biotinylated BSA in PBS. The pre-coated wells are thereafter three times washed with PBS and then filled with 100 µl of binding buffer C+ (100 mM KCl, 20 mM Tris, 5 mM MgCl2, 0.05% Tween 20, 0.05 mM EDTA, 1% BSA). […]

B1: Arc operator, one copy, on linear genetic element (dsDNA)
DNA 1: ATGATAGAAGCACTCTACTAT
DNA 2: ATAGTAGAGTGCTTCTATCAT
binding result (Vh(DOM1h-10-27)-scArc-HA): binds | binding result [1]: binds
